Measured values from IntAct's records for PubMed 23357641.

B1: Nephronectin (Mus musculus), Q91V88 (parent)
chain: MAVLLAAVLASSLYLQVAADFDGRWPRQIVSSIGLCRYGGRIDCCWGWARQSWGQCQPVCQPQCKHGECVGPNKCKCHPGFAGKTCNQDLNECGLKPRPCKHRCMNTFGSYKCYCLNGYMLLPDGSCSSALSCSMANCQYGCDVVKGQVRCQCPSPGLQLAPDGRTCVDIDECATGRVSCPRFRQCVNTFGSYICKCHTGFDLMYIGGKYQCHDIDECSLGQHQCSSYARCYNIHGSYKCQCRDGYEGDGLNCVYIPKVMIEPSGPIHMPERNGTISKGDGGHANRIPDAGSTRWPLKTPYIPPVITNRPTSKPTTRPTPNPTPQPTPPPPPPLPTEPRTTPLPPTPERPSTRPTTIAPATSTTTRVITVDNRIQTDPQKPRGDVFIPRQPTNDLFEIFEIERGVSADEEVKDDPGILIHSCNFDHGLCGWIREKDSDLHWETARDPAGGQYLTVSAAKAPGGKAARLVLRLGHLMHSGDLCLSFRHKVTGLHSGTLQVFVRKHGTHGAALWGRNGGHGWRQTQITLRGADVKSVIFKGEKRRGHTGEIGLDDVSLKRGRC

Variants of: B1
Settings: with agrin_human AGRN

Row | effect of a mutation on the interaction | Variant
1 | decreasing interaction | MAVLLAAVLASSLYLQVAADFDGRWPRQIVSSIGLCRYGGRIDCCWGWARQSWGQCQPVCQPQCKHGECVGPNKCKCHPGFAGKTCNQDLNECGLKPRPCKHRCMNTFGSYKCYCLNGYMLLPDGSCSSALSCSMANCQYGCDVVKGQVRCQCPSPGLQLAPDGRTCVDIDECATGRVSCPRFRQCVNTFGSYICKCHTGFDLMYIGGKYQCHDIDECSLGQHQCSSYARCYNIHGSYKCQCRDGYEGDGLNCVYIPKVMIEPSGPIHMPERNGTISKGDGGHANRIPDAGSTRWPLKTPYIPPVITNRPTSKPTTRPTPNPTPQPTPPPPPPLPTEPRTTPLPPTPERPSTRPTTIAPATSTTTRVITVDNRIQTDPQKPRGDVFIPRQPTNDLFEIFEIERGVSADEEVKDDPGILIHSCNFDHGLCGWIREKDSDLHWETARDPAGGQYLTVSAAKAPGGKAARLVLRLGHLMHSGDLCLSFRHKVTGLHSGTLQVFVRKHGTHGAALWGRNGGHGWRQTQITLRGADVKSVIFKGEAAAGHTGEIGLDDVSLKRGRC [K541A;R542A;R543A]
2 | decreasing interaction | MAVLLAAVLASSLYLQVAADFDGRWPRQIVSSIGLCRYGGRIDCCWGWARQSWGQCQPVCQPQCKHGECVGPNKCKCHPGFAGKTCNQDLNECGLKPRPCKHRCMNTFGSYKCYCLNGYMLLPDGSCSSALSCSMANCQYGCDVVKGQVRCQCPSPGLQLAPDGRTCVDIDECATGRVSCPRFRQCVNTFGSYICKCHTGFDLMYIGGKYQCHDIDECSLGQHQCSSYARCYNIHGSYKCQCRDGYEGDGLNCVYIPKVMIEPSGPIHMPERNGTISKGDGGHANRIPDAGSTRWPLKTPYIPPVITNRPTSKPTTRPTPNPTPQPTPPPPPPLPTEPRTTPLPPTPERPSTRPTTIAPATSTTTRVITVDNRIQTDPQKPRGDVFIPRQPTNDLFEIFEIERGVSADEEVKDDPGILIHSCNFDHGLCGWIREKDSDLHWETARDPAGGQYLTVSAAKAPGGKAARLVLRLGHLMHSGDLCLSFRHKVTGLHSGTLQVFVRKHGTHGAALWGRNGGHGWRQTQITLAGADVKSVIFKGEKRRGHTGEIGLDDVSLKRGRC [R528A]
3 | decreasing interaction | MAVLLAAVLASSLYLQVAADFDGRWPRQIVSSIGLCRYGGRIDCCWGWARQSWGQCQPVCQPQCKHGECVGPNKCKCHPGFAGKTCNQDLNECGLKPRPCKHRCMNTFGSYKCYCLNGYMLLPDGSCSSALSCSMANCQYGCDVVKGQVRCQCPSPGLQLAPDGRTCVDIDECATGRVSCPRFRQCVNTFGSYICKCHTGFDLMYIGGKYQCHDIDECSLGQHQCSSYARCYNIHGSYKCQCRDGYEGDGLNCVYIPKVMIEPSGPIHMPERNGTISKGDGGHANRIPDAGSTRWPLKTPYIPPVITNRPTSKPTTRPTPNPTPQPTPPPPPPLPTEPRTTPLPPTPERPSTRPTTIAPATSTTTRVITVDNRIQTDPQKPRGDVFIPRQPTNDLFEIFEIERGVSADEEVKDDPGILIHSCNFDHGLCGWIREKDSDLHWETARDPAGGQYLTVSAAKAPGGKAARLVLALGHLMHSGDLCLSFRHKVTGLHSGTLQVFVRKHGTHGAALWGRNGGHGWRQTQITLRGADVKSVIFKGEKRRGHTGEIGLDDVSLKRGRC [R471A]

Second part, the variant before the results:

Row | Variant | effect of a mutation on the interaction
4 | MAVLLAAVLASSLYLQVAADFDGRWPRQIVSSIGLCRYGGRIDCCWGWARQSWGQCQPVCQPQCKHGECVGPNKCKCHPGFAGKTCNQDLNECGLKPRPCKHRCMNTFGSYKCYCLNGYMLLPDGSCSSALSCSMANCQYGCDVVKGQVRCQCPSPGLQLAPDGRTCVDIDECATGRVSCPRFRQCVNTFGSYICKCHTGFDLMYIGGKYQCHDIDECSLGQHQCSSYARCYNIHGSYKCQCRDGYEGDGLNCVYIPKVMIEPSGPIHMPERNGTISKGDGGHANRIPDAGSTRWPLKTPYIPPVITNRPTSKPTTRPTPNPTPQPTPPPPPPLPTEPRTTPLPPTPERPSTRPTTIAPATSTTTRVITVDNRIQTDPQKPRGDVFIPRQPTNDLFEIFEIERGVSADEEVKDDPGILIHSCNFDHGLCGWIREKDSDLHWETARDPAGGQYLTVSAAKAPGGKAARLVLRLGHLMHSGDLCLSFRHKVTGLHSGTLQVFVAAAGTHGAALWGRNGGHGWRQTQITLRGADVKSVIFKGEKRRGHTGEIGLDDVSLKRGRC [R502A;K503A;H504A] | decreasing interaction
5 | MAVLLAAVLASSLYLQVAADFDGRWPRQIVSSIGLCRYGGRIDCCWGWARQSWGQCQPVCQPQCKHGECVGPNKCKCHPGFAGKTCNQDLNECGLKPRPCKHRCMNTFGSYKCYCLNGYMLLPDGSCSSALSCSMANCQYGCDVVKGQVRCQCPSPGLQLAPDGRTCVDIDECATGRVSCPRFRQCVNTFGSYICKCHTGFDLMYIGGKYQCHDIDECSLGQHQCSSYARCYNIHGSYKCQCRDGYEGDGLNCVYIPKVMIEPSGPIHMPERNGTISKGDGGHANRIPDAGSTRWPLKTPYIPPVITNRPTSKPTTRPTPNPTPQPTPPPPPPLPTEPRTTPLPPTPERPSTRPTTIAPATSTTTRVITVDNRIQTDPQKPRGDVFIPRQPTNDLFEIFEIERGVSADEEVKDDPGILIHSCNFDHGLCGWIREKDSDLHWETAADPAGGQYLTVSAAKAPGGKAARLVLRLGHLMHSGDLCLSFRHKVTGLHSGTLQVFVRKHGTHGAALWGRNGGHGWRQTQITLRGADVKSVIFKGEKRRGHTGEIGLDDVSLKRGRC [R445A] | decreasing interaction
6 | MAVLLAAVLASSLYLQVAADFDGRWPRQIVSSIGLCRYGGRIDCCWGWARQSWGQCQPVCQPQCKHGECVGPNKCKCHPGFAGKTCNQDLNECGLKPRPCKHRCMNTFGSYKCYCLNGYMLLPDGSCSSALSCSMANCQYGCDVVKGQVRCQCPSPGLQLAPDGRTCVDIDECATGRVSCPRFRQCVNTFGSYICKCHTGFDLMYIGGKYQCHDIDECSLGQHQCSSYARCYNIHGSYKCQCRDGYEGDGLNCVYIPKVMIEPSGPIHMPERNGTISKGDGGHANRIPDAGSTRWPLKTPYIPPVITNRPTSKPTTRPTPNPTPQPTPPPPPPLPTEPRTTPLPPTPERPSTRPTTIAPATSTTTRVITVDNRIQTDPQKPRGDVFIPRQPTNDLFEIFEIERGVSADEEVKDDPGILIHSCNFDHGLCGWIREKDSDLHWETARDPAGGQYLTVSAAKAPGGKAARLVLRLGHLMHSGDLCLSFRHKVTGLHSGTLQVFVRKHGTHGAALWGRNGGHGWRQTQITLRGADVKSVIFKGEKRRGHTGEIGLDDVSLAAAAC [K557A;R558A;G559A;R560A] | decreasing interaction
7 | MAVLLAAVLASSLYLQVAADFDGRWPRQIVSSIGLCRYGGRIDCCWGWARQSWGQCQPVCQPQCKHGECVGPNKCKCHPGFAGKTCNQDLNECGLKPRPCKHRCMNTFGSYKCYCLNGYMLLPDGSCSSALSCSMANCQYGCDVVKGQVRCQCPSPGLQLAPDGRTCVDIDECATGRVSCPRFRQCVNTFGSYICKCHTGFDLMYIGGKYQCHDIDECSLGQHQCSSYARCYNIHGSYKCQCRDGYEGDGLNCVYIPKVMIEPSGPIHMPERNGTISKGDGGHANRIPDAGSTRWPLKTPYIPPVITNRPTSKPTTRPTPNPTPQPTPPPPPPLPTEPRTTPLPPTPERPSTRPTTIAPATSTTTRVITVDNRIQTDPQKPRGDVFIPRQPTNDLFEIFEIERGVSADEEVKDDPGILIHSCNFDHGLCGWIREKDSDLHWETARDPAGGQYLTVSAAAAPGGAAARLVLRLGHLMHSGDLCLSFRHKVTGLHSGTLQVFVRKHGTHGAALWGRNGGHGWRQTQITLRGADVKSVIFKGEKRRGHTGEIGLDDVSLKRGRC [K459A;K464A] | decreasing interaction
